# B1: his-tagged WT Psu (polarity suppression protein, bacteriophage P4 capsid decorating protein) (natural protein)
# chain: MESTALQQAFDTCQNNKAAWLQRKNELAAAEQEYLRLLSGEGRNVSRLDELRNIIEVRKWQVNQAAGRYIRSHEAVQHISIRDRLNDFMQQHGTALAAALAPELMGYSELTAIARNCAIQRATDALREALLSWLAKGEKINYSAQDSDILTTIGFRPDVASVDDSREKFTPAQNMIFSRKSAQLASRQSV
# Target: P167L Rho (E. coli, UniProt P0AG30 1-419, P167L)
# Experiment: pull-down
binder,measurement,value
B1,binding result,binds

# Source: paper PMC3821671 (Bacteriophage, 2013)
